# Earlier results in patent US7744870B1, “ST receptor binding compounds and methods of using the same” (Thomas Jefferson University, priority 1993, dated 2010).
# Ends that are not written are not given here.
# Tests used:
# [1] = molecular target: T1, ST receptor (Homo sapiens, UniProt P25092); conditions: reported in cited literature; cited from earlier work
# T1 construct: a preparation of ST receptors (e.g. intestinal membranes from rat intestine, human intestine, T84 cells); from tissue; host or cells: human intestinal membranes
# T1 sequence (P25092 24-1073): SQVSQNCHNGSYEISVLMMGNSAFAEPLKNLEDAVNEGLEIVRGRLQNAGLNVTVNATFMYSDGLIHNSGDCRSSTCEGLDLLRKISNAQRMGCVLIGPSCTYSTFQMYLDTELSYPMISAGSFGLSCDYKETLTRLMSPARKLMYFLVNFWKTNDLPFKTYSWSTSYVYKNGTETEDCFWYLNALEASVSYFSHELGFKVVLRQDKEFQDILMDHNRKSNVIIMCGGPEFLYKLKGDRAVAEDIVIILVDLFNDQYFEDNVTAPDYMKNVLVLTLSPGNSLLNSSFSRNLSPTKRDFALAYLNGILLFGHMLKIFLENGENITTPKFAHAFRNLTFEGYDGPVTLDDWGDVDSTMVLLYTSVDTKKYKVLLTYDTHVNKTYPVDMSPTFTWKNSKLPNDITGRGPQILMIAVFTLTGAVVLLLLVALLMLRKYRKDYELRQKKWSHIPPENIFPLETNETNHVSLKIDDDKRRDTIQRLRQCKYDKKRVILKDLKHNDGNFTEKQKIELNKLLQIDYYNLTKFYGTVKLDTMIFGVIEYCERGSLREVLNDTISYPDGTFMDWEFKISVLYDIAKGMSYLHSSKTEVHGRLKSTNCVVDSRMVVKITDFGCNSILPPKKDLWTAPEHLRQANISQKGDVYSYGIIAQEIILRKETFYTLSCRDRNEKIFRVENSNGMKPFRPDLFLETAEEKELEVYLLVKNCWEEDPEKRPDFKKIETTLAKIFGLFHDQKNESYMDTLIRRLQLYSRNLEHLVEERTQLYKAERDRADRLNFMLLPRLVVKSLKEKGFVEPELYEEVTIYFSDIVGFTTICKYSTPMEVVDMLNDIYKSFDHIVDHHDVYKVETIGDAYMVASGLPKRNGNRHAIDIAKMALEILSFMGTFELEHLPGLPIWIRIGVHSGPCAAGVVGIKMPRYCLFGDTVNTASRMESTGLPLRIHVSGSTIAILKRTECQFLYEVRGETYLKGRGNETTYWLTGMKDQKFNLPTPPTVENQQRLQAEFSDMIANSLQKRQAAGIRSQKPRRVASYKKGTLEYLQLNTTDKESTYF
# [2] = molecular target: guanylate cyclase (Homo sapiens, UniProt P25092); conditions: relative to native ST; cited from earlier work
# guanylate cyclase, sequence (P25092 24-1073): as above
Substance,binds to the ST receptor [1],activates guanylate cyclase at a level less than native ST [2]
SEQ ID NO:47: 16 amino acid peptide derived from V. cholerae (IDCCICCNPACFGCLN; listed as Vibrio cholerae),binds to the ST receptor,–
SEQ ID NO:48: 18 amino acid peptide derived from Y. enterocolitica (SSDWDCCDVCCNPACAGC; listed as Yersinia enterocolitica),binds to the ST receptor,–
"guanylin (PGTCEICAYAACTGC; ends and bridges not checked; cysteine pairing not given here; UniProt Q02747 101-115, looked up)",binds to ST receptors,10- to 100 fold
